Results on one molecule are retold here after PMC9933633.

The data set concerns the target SARS-CoV-2 Spike RBD (SARS-CoV-2, UniProt P0DTC2 319-541). Nature of the data set: electrochemical aptasensor.

B1: Spike RBD aptamer (51-base, Song et al. 2020) (structured_DNA)
DNA: CAGCACCGACCTTGTGCTTTGGGAGTGCTGGTCCAAGGGCGTTAATGGACA
modifications: 5' C6-NH2
On to B1, for which the binding result is “binds”.
